Substrate in data set [1]: CC(C)CCC[C@@H](C)[C@H]1CC[C@H]2[C@@H]3CC=C4C[C@@H](O)CC[C@]4(C)[C@H]3CC[C@]12C
Nature of the data set: purified protein, by the assay type. The settings on record: other: compound as substrate, 37.0 °C.

Substrate in data set [2]: CC(C)CCC[C@@H](C)[C@H]1CC[C@H]2[C@@H]3CC=C4C[C@@H](OS(=O)(=O)O)CC[C@]4(C)[C@H]3CC[C@]12C
Nature of the data set: purified protein, by the assay type. The settings on record: other: compound as substrate, 37.0 °C.

B1: full-length CYP46A1 (Homo sapiens) (protein)
chain: MSPGLLLLGSAVLLAFGLCCTFVHRARSRYEHIPGPPRPSFLLGHLPCFWKKDEVGGRVLQDVFLDWAKKYGPVVRVNVFHKTSVIVTSPESVKKFLMSTKYNKDSKMYRALQTVFGERLFGQGLVSECNYERWHKQRRVIDLAFSRSSLVSLMETFNEKAEQLVEILEAKADGQTPVSMQDMLTYTAMDILAKAAFGMETSMLLGAQKPLSQAVKLMLEGITASRNTLAKFLPGKRKQLREVRESIRFLRQVGRDWVQRRREALKRGEEVPADILTQILKAEEGAQDDEGLLDNFVTFFIAGHETSANHLAFTVMELSRQPEIVARLQAEVDEVIGSKRYLDFEDLGRLQYLSQVLKESLRLYPPAWGTFRLLEEETLIDGVRVPGNTPLLFSTYVMGRMDTYFEDPLTFNPDRFGPGAPKPRFTYFPFSLGHRSCIGQQFAQMEVKVVMAKLLQRLEFRLVPGQRFGLQEQATLKPLDPVLCTLRPRGWQPAPPPPPC
A word on the Km: it is the concentration of substrate that gives half-maximal velocity. In general, kcat refers to the number of substrate molecules converted per active site and unit of time at saturation. Broadly, the kcat/Km is the turnover number divided by the Michaelis constant. As for B1, in data set [1] (Full-length CYP46A1), the Km was found to be 5.4 µM, the catalytic constant (kcat) is given as 0.11^2 min^−1 and the catalytic efficiency (kcat/Km) was found to be 0.02 min⁻¹ µM⁻¹. Also, in data set [2] (Full-length CYP46A1), the Km came out at 4.9 µM.

B2: Δ(2-50)CYP46A1dH (Homo sapiens) (protein)
chain: MKKDEVGGRVLQDVFLDWAKKYGPVVRVNVFHKTSVIVTSPESVKKFLMSTKYNKDSKMYRALQTVFGERLFGQGLVSECNYERWHKQRRVIDLAFSRSSLVSLMETFNEKAEQLVEILEAKADGQTPVSMQDMLTYTAMDILAKAAFGMETSMLLGAQKPLSQAVKLMLEGITASRNTLAKFLPGKRKQLREVRESIRFLRQVGRDWVQRRREALKRGEEVPADILTQILKAEEGAQDDEGLLDNFVTFFIAGHETSANHLAFTVMELSRQPEIVARLQAEVDEVIGSKRYLDFEDLGRLQYLSQVLKESLRLYPPAWGTFRLLEEETLIDGVRVPGNTPLLFSTYVMGRMDTYFEDPLTFNPDRFGPGAPKPRFTYFPFSLGHRSCIGQQFAQMEVKVVMAKLLQRLEFRLVPGQRFGLQEQATLKPLDPVLCTLRPRGWQPAPPPPPC
Consider B2, for which, in data set [1] (Δ(2-50) CYP46A1), the Km is 7.7 µM, the catalytic constant (kcat) was found to be 0.43 min⁻¹ and the kcat/Km was 0.06 min⁻¹ µM⁻¹. Besides, in data set [2] (Δ(2-50) CYP46A1), the Km was found to be 3.3 µM.

Source of the values: patent US20170182047A9, “Post-Translational Regulation of Catalytic Activities of Cytochrome P450 46A1 and Uses Thereof” (The Board of Regents of the University of Texas System, priority 2007, published 2017).
